According to patent US20170082635A1 (University of California, published 2017):

T1: yeast 20 S proteasome subunit α6 (PRE5) (yeast, UniProt P40302 1-234)
T1 sequence (looked up): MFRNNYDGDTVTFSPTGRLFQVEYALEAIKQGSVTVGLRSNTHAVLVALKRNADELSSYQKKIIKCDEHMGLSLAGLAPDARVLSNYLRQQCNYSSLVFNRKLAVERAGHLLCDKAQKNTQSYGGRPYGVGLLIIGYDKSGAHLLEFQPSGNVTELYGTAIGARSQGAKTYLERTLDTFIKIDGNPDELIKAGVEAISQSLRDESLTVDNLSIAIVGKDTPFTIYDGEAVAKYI

T2: yeast 20 S proteasome subunit α3 (PRE9) (yeast, UniProt P23638 1-258)
T2 sequence (looked up): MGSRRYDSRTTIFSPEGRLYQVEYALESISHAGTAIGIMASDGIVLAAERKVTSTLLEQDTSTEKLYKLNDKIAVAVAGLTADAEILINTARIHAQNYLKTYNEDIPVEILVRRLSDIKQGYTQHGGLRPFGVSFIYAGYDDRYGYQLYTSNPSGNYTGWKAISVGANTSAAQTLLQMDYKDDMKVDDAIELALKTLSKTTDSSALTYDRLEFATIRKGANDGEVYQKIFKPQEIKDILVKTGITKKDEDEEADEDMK

B1: yeast 20 S proteasome subunit β6 (PRE7) (other, UniProt P23724 20-241, looked up)
chain: QFNPYGDNGGTILGIAGEDFAVLAGDTRNITDYSINSRYEPKVFDCGDNIVMSANGFAADGDALVKRFKNSVKWYHFDHNDKKLSINSAARNIQHLLYGKRFFPYYVHTIIAGLDEDGKGAVYSFDPVGSYEREQCRAGGAAASLIMPFLDNQVNFKNQYEPGTNGKVKKPLKYLSVEEVIKLVRDSFTSATERHIQVGDGLEILIVTKDGVRKEFYELKRD
notes: mature
B2: yeast 20 S proteasome subunit β3 (PUP3) (other, UniProt P25451 1-205, looked up)
chain: MSDPSSINGGIVVAMTGKDCVAIACDLRLGSQSLGVSNKFEKIFHYGHVFLGITGLATDVTTLNEMFRYKTNLYKLKEERAIEPETFTQLVSSSLYERRFGPYFVGPVVAGINSKSGKPFIAGFDLIGCIDEAKDFIVSGTASDQLFGMCESLYEPNLEPEDLFETISQALLNAADRDALSGWGAVVYIIKKDEVVKRYLKMRQD
B3: human proteasome subunit α3 (other, UniProt P25789 1-261, looked up)
chain: MSRRYDSRTTIFSPEGRLYQVEYAMEAIGHAGTCLGILANDGVLLAAERRNIHKLLDEVFFSEKIYKLNEDMACSVAGITSDANVLTNELRLIAQRYLLQYQEPIPCEQLVTALCDIKQAYTQFGGKRPFGVSLLYIGWDKHYGFQLYQSDPSGNYGGWKATCIGNNSAAAVSMLKQDYKEGEMTLKSALALAIKVLNKTMDVSKLSAEKVEIATLTRENGKTVIRVLKQKEVEQLIKKHEEEEAKAEREKKEKEQKEKDK
notes: whole, on cells; endogenous, cross-linked inside intact 293 cells, then purified with the HB-tagged bait under denaturing conditions; also called alpha3; alpha-3
B4: human proteasome subunit Rpn9 (other, UniProt Q9UNM6 1-376, looked up)
chain: MKDVPGFLQQSQNSGPGQPAVWHRLEELYTKKLWHQLTLQVLDFVQDPCFAQGDGLIKLYENFISEFEHRVNPLSLVEIILHVVRQMTDPNVALTFLEKTREKVKSSDEAVILCKTAIGALKLNIGDLQVTKETIEDVEEMLNNLPGVTSVHSRFYDLSSKYYQTIGNHASYYKDALRFLGCVDIKDLPVSEQQERAFTLGLAGLLGEGVFNFGELLMHPVLESLRNTDRQWLIDTLYAFNSGNVERFQTLKTAWGQQPDLAANEAQLLRKIQLLCLMEMTFTRPANHRQLTFEEIAKSAKITVNEVELLVMKALSVGLVKGSIDEVDKRVHMTWVQPRVLDLQQIKGMKDRLEFWCTDVKSMEMLVEHQAHDILT
notes: whole, on cells; endogenous, cross-linked inside intact 293 cells, purified with the HB-tagged bait; also called Q9UNM6
B5: yeast 20 S proteasome subunit β4 (PRE1) (other, UniProt P22141 1-198, looked up)
chain: MDIILGIRVQDSVILASSKAVTRGISVLKDSDDKTRQLSPHTLMSFAGEAGDTVQFAEYIQANIQLYSIREDYELSPQAVSSFVRQELAKSIRSRRPYQVNVLIGGYDKKKNKPELYQIDYLGTKVELPYGAHGYSGFYTFSLLDHHYRPDMTTEEGLDLLKLCVQELEKRMPMDFKGVIVKIVDKDGIRQVDDFQAQ

Assays:
[1] = biological target: T1, yeast 20 S proteasome subunit α6 (PRE5); assay: DSSO XL-MS of purified yeast 20S proteasome
[2] = biological target: T2, yeast 20 S proteasome subunit α3 (PRE9); assay: DSSO XL-MS of purified yeast 20S proteasome
[3] = biological target: T3, HB-Rpt6 (human, UniProt P62195 2-406); assay: in vivo azide-A-DSBSO XL-MS of HB-tag purified human proteasome
T3 construct: whole, on cells; stably expressed in 293 cells; used for all links whose Bait column says Rpt6; residue numbers count on P62195, not on the tagged construct; also called Rpt6 (bait); HB tagged proteasome subunit Rpt6; not shown: HB (His-bio) tag, written before Rpt6

[4] = biological target: T4, human proteasome subunit Rpn5 (human, UniProt O00232 2-456); assay: as above
T4 construct: whole, on cells; endogenous, cross-linked inside intact 293 cells, purified with the HB-tagged bait; also called O00232

[5] = biological target: B2; assay: DSSO XL-MS of purified yeast 20S proteasome

Binder: B1
binding result [1]: binds

Binder: B2
binding result [2]: binds

Binder: B3
binding result [3]: binds

Binder: B4
binding result [4]: binds

Binder: B5
binding result [5]: binds
